# Experimental data: paper PMC6555819, “Comprehensive study of nuclear receptor DNA binding provides a revised framework for understanding receptor specificity”
# Changes are numbered by the printed parent chain.
# B1: NRC3_wobSeed5_DR0_A14T_o1 (dsDNA)
# DNA 1: GCCCTTACGGGTCTAGGTTATAGCACGGGTGGTACGGCGATTGACAGCGTAGAATGAAGG
# DNA 2: CCTTCATTCTACGCTGTCAATCGCCGTACCACCCGTGCTATAACCTAGACCCGTAAGGGC
# B2: NRC3_random_hg19_139_o1 (dsDNA)
# DNA 1: GCAGGATCGCTTGAGTCCAGAGTTTGAGACCAGCCTGCGATTGACAGCGTAGAATGAAGG
# DNA 2: CCTTCATTCTACGCTGTCAATCGCAGGCTGGTCTCAAACTCTGGACTCAAGCGATCCTGC
# B3: NRC3_wobSeed69_DR2_T11G_o1 (dsDNA)
# DNA 1: GCAGTCAAAGGTCACTAGGTAACGTAAGATTCAGCTGCGATTGACAGCGTAGAATGAAGG
# DNA 2: CCTTCATTCTACGCTGTCAATCGCAGCTGAATCTTACGTTACCTAGTGACCTTTGACTGC
# B4: NRC3_wobSeed47_DR1_G12T_o1 (dsDNA)
# DNA 1: GCGGAACGAGGTCAAAGTTGATAGCATCTGTCGACGGCGATTGACAGCGTAGAATGAAGG
# DNA 2: CCTTCATTCTACGCTGTCAATCGCCGTCGACAGATGCTATCAACTTTGACCTCGTTCCGC
# B5: NRC3_random_hg19_278_o1 (dsDNA)
# DNA 1: GCGCTACTTGGGAGGCTGAGATGGTAGAATCACTTGGCGATTGACAGCGTAGAATGAAGG
# DNA 2: CCTTCATTCTACGCTGTCAATCGCCAAGTGATTCTACCATCTCAGCCTCCCAAGTAGCGC
# B6: NRC3_random_hg19_189_o1 (dsDNA)
# DNA 1: GCATCTGCCTTGCTCTTTCTACCTTTCAGTGTCTTTGCGATTGACAGCGTAGAATGAAGG
# DNA 2: CCTTCATTCTACGCTGTCAATCGCAAAGACACTGAAAGGTAGAAAGAGCAAGGCAGATGC
# B7: NRC3_random_hg19_399_o1 (dsDNA)
# DNA 1: GCATGAGATTTCACTGTGTTAGCCAGGATGGTCTCCGCGATTGACAGCGTAGAATGAAGG
# DNA 2: CCTTCATTCTACGCTGTCAATCGCGGAGACCATCCTGGCTAACACAGTGAAATCTCATGC
# B8: NRC3_random_hg19_249_o1 (dsDNA)
# DNA 1: GCTTTCCCACAATGTGTAGTTAGAGTTTGAGTTGTGGCGATTGACAGCGTAGAATGAAGG
# DNA 2: CCTTCATTCTACGCTGTCAATCGCCACAACTCAAACTCTAACTACACATTGTGGGAAAGC
# B9: NRC3_wobSeed49_DR2_A17G_o1 (dsDNA)
# DNA 1: GCCAAACTAGGTCAAGGGGTCAAAGTCCGCTTCCCGGCGATTGACAGCGTAGAATGAAGG
# DNA 2: CCTTCATTCTACGCTGTCAATCGCCGGGAAGCGGACTTTGACCCCTTGACCTAGTTTGGC
# B10: NRC3_random_hg19_207_o1 (dsDNA)
# DNA 1: GCGCAAAGGCTGCGGTGCAATCCTGCATTCTTGTTCGCGATTGACAGCGTAGAATGAAGG
# DNA 2: CCTTCATTCTACGCTGTCAATCGCGAACAAGAATGCAGGATTGCACCGCAGCCTTTGCGC
# B11: NRC3_wobSeed69_DR2_C6A_o1 (dsDNA)
# DNA 1: B3 DNA 1 with C6A, G11T
# DNA 2: B3 DNA 2 with C50A, G55T
# B12: NRC3_random_hg19_393_o1 (dsDNA)
# DNA 1: GCTCCCAGCCACTCAGGAGGCTGAGGCAGGAGAATTGCGATTGACAGCGTAGAATGAAGG
# DNA 2: CCTTCATTCTACGCTGTCAATCGCAATTCTCCTGCCTCAGCCTCCTGAGTGGCTGGGAGC
# B13: NRC3_random_hg19_293_o1 (dsDNA)
# DNA 1: GCGGAGAGGTCTTAGGATGCATTGGAGGCACAGTGTGCGATTGACAGCGTAGAATGAAGG
# DNA 2: CCTTCATTCTACGCTGTCAATCGCACACTGTGCCTCCAATGCATCCTAAGACCTCTCCGC
# B14: NRC3_wobSeed46_DR1_C6T_o1 (dsDNA)
# DNA 1: GCTTATCAAGGTGAAAGGTCGTTGATGCACGCCTTGGCGATTGACAGCGTAGAATGAAGG
# DNA 2: CCTTCATTCTACGCTGTCAATCGCCAAGGCGTGCATCAACGACCTTTCACCTTGATAAGC
# B15: NRC3_wobSeed46_DR1_C6A_o1 (dsDNA)
# DNA 1: B14 DNA 1 with T6A
# DNA 2: B14 DNA 2 with A55T
# B16: NRC3_random_hg19_404_o1 (dsDNA)
# DNA 1: GCACTTCGTGATCTGCCTGCCTTAGCCTCCCAAAGTGCGATTGACAGCGTAGAATGAAGG
# DNA 2: CCTTCATTCTACGCTGTCAATCGCACTTTGGGAGGCTAAGGCAGGCAGATCACGAAGTGC
# B17: NRC3_wobSeed133_DR5_T12A_o1 (dsDNA)
# DNA 1: GCCGTCCAAGGACAATGCTAGGTCAGTGAAAGCATTGCGATTGACAGCGTAGAATGAAGG
# DNA 2: CCTTCATTCTACGCTGTCAATCGCAATGCTTTCACTGACCTAGCATTGTCCTTGGACGGC
# B18: NRC3_random_hg19_447_o1 (dsDNA)
# DNA 1: GCCTCTCTTTCTCTCTCTCTCTCTCTCTCTCTCTCTGCGATTGACAGCGTAGAATGAAGG
# DNA 2: CCTTCATTCTACGCTGTCAATCGCAGAGAGAGAGAGAGAGAGAGAGAGAGAAAGAGAGGC
# B19: NRC3_random_hg19_197_o1 (dsDNA)
# DNA 1: GCGCAACCTCTGCCTCTCAGGCTCAAGTGACCTTCCGCGATTGACAGCGTAGAATGAAGG
# DNA 2: CCTTCATTCTACGCTGTCAATCGCGGAAGGTCACTTGAGCCTGAGAGGCAGAGGTTGCGC
# B20: NRC3_random_hg19_396_o1 (dsDNA)
# DNA 1: GCTTGTTGTGGTTGATGTTGTTCACTCTCAGTCTCCGCGATTGACAGCGTAGAATGAAGG
# DNA 2: CCTTCATTCTACGCTGTCAATCGCGGAGACTGAGAGTGAACAACATCAACCACAACAAGC
# B21: NRC3_wobSeed40_DR1_A4G_o1 (dsDNA)
# DNA 1: GCTGGCCTAGGTCATGGGCCAGTATACCACGCGAACGCGATTGACAGCGTAGAATGAAGG
# DNA 2: CCTTCATTCTACGCTGTCAATCGCGTTCGCGTGGTATACTGGCCCATGACCTAGGCCAGC
# Biological target: RXRa (Homo sapiens, UniProt P19793)
# Test: no ligand; PBM; 180 nM; PBS pH 7.4, 2% milk, 0.02% Triton X-100, 1 mM DTT, BSA, 0.4 mg/ml salmon testes DNA
# Settings: tags: His cleaved; chain copies: 2; label: surface-attached array probe
# RXRa, sequence (P19793 whole entry): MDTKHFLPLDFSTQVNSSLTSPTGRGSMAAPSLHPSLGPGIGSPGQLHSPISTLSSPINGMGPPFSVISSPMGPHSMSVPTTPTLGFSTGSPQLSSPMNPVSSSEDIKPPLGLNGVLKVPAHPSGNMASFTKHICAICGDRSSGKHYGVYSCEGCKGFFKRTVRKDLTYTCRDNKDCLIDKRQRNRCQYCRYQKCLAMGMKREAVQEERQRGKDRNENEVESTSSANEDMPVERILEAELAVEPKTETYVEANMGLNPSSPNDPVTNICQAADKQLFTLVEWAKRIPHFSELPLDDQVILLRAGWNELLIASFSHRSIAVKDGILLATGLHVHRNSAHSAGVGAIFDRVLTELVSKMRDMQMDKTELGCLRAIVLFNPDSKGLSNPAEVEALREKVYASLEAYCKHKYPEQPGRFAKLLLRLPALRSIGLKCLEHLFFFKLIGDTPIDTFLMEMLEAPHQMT
row,Binder,binding signal
1,B1,0.15 PBM z-score against 500 random probes
2,B2,-0.68 PBM z-score against 500 random probes
3,B3,7.84 PBM z-score against 500 random probes
4,B4,8.54 PBM z-score against 500 random probes
5,B5,-0.89 PBM z-score against 500 random probes
6,B6,-0.72 PBM z-score against 500 random probes
7,B7,-0.2 PBM z-score against 500 random probes

# Biological target: PPARg:RXRa (Homo sapiens, UniProt P37231;P19793 full;full)
# Test: no ligand; PBM; 180 nM : 90 nM RXRa; PBS pH 7.4, 2% milk, 0.02% Triton X-100, 1 mM DTT, BSA, 0.4 mg/ml salmon testes DNA
# Settings: tags: His kept;His cleaved; copies: 1;1; label: surface-attached array probe
# PPARg:RXRa, sequence (P37231 29-505, chain 1 of 2): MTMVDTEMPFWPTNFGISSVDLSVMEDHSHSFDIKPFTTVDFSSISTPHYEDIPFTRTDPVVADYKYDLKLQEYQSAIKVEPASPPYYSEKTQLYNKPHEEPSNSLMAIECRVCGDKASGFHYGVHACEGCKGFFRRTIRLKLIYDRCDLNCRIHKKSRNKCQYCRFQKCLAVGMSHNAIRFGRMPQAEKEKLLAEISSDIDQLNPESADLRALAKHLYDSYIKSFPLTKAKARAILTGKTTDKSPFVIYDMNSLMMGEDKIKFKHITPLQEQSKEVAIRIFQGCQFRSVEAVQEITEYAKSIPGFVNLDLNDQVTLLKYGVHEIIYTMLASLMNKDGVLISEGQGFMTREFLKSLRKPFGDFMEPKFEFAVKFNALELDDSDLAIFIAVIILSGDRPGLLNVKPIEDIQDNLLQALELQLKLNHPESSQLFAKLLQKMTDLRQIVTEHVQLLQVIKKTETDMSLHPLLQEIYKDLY
# PPARg:RXRa, sequence (P19793 whole entry, chain 2 of 2): as the sequence (P19793 whole entry) above
row,Binder,binding signal
1,B1,0.3 PBM z-score against 500 random probes
2,B8,-0.37 PBM z-score against 500 random probes
3,B2,-0.51 PBM z-score against 500 random probes
4,B9,10.8 PBM z-score against 500 random probes
5,B10,-0.83 PBM z-score against 500 random probes
6,B11,5.13 PBM z-score against 500 random probes
7,B3,10.2 PBM z-score against 500 random probes
8,B4,10.5 PBM z-score against 500 random probes
9,B12,-0.69 PBM z-score against 500 random probes
10,B5,-0.02 PBM z-score against 500 random probes
11,B13,0.47 PBM z-score against 500 random probes
12,B14,10.9 PBM z-score against 500 random probes
13,B15,10.4 PBM z-score against 500 random probes
14,B16,-1.16 PBM z-score against 500 random probes
15,B17,0.18 PBM z-score against 500 random probes
16,B6,-1.57 PBM z-score against 500 random probes
17,B18,-3.64 PBM z-score against 500 random probes
18,B19,-0.35 PBM z-score against 500 random probes
19,B7,0.22 PBM z-score against 500 random probes
20,B20,-0.98 PBM z-score against 500 random probes
21,B21,3.34 PBM z-score against 500 random probes

# Biological target: PPARa:RXRa (Homo sapiens, UniProt Q07869;P19793 full;full)
# Test: no ligand; PBM; 270 nM : 90 nM RXRa; PBS pH 7.4, 2% milk, 0.02% Triton X-100, 1 mM DTT, BSA, 0.4 mg/ml salmon testes DNA
# Settings: tags: GST kept;His cleaved; copies: 1;1; label: surface-attached array probe
# Summary of the method: (§1)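 Probes were double-stranded and carried 34-nt variable regions with direct-repeat seeds, single-nucleotide variants, half-site ablations and random human genomic background sequences, printed on custom Agilent 4×180K protein-binding microarrays. Arrays were incubated 1 h with ligand-free nuclear receptor dimers in PBS pH 7.4, 2% milk, 0.02% Triton X-100, 1 mM DTT, 0.2 mg/mL BSA and 0.4 mg/ml salmon testes DNA. Antibodies against each partner (one per run) detected binding, and scanned fluorescence was regression-normalized. Binding z-scores use the random background probes as reference.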
# PPARa:RXRa, sequence (Q07869 whole entry, chain 1 of 2): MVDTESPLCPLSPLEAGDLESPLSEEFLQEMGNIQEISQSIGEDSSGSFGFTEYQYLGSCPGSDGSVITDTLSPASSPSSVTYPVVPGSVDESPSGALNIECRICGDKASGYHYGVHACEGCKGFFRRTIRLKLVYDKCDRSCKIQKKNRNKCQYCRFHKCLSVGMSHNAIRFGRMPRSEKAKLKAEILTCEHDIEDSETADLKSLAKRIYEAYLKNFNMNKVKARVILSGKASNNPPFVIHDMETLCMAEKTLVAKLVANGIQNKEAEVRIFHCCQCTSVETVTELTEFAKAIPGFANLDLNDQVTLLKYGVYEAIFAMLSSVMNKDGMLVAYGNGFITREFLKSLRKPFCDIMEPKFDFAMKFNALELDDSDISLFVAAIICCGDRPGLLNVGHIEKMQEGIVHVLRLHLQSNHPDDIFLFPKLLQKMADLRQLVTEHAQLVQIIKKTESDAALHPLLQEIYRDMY
# PPARa:RXRa, sequence (P19793 whole entry, chain 2 of 2): as the sequence (P19793 whole entry) above
row,Binder,binding signal
1,B2,-1.12 PBM z-score against 500 random probes
2,B4,6.61 PBM z-score against 500 random probes

# Biological target: RARg:RXRa (Homo sapiens, UniProt P13631;P19793 full;full)
# Test: as above
# Settings: tags: His kept;His cleaved; copies: 1;1; label: surface-attached array probe
# Summary of the method: as §1
# RARg:RXRa, sequence (P13631 whole entry, chain 1 of 2): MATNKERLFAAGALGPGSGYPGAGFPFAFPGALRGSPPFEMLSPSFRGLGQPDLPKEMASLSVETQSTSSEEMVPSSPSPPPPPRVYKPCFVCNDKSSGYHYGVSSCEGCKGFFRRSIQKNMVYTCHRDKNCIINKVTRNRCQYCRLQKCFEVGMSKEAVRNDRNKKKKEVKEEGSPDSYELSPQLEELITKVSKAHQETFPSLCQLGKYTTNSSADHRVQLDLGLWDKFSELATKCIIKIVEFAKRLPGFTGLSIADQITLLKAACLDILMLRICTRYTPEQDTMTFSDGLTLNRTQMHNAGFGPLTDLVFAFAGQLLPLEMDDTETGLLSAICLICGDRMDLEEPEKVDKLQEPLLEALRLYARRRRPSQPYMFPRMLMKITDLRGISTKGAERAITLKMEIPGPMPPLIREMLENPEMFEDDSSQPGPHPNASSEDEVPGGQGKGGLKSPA
# RARg:RXRa, sequence (P19793 whole entry, chain 2 of 2): as the sequence (P19793 whole entry) above
row,Binder,binding signal
1,B1,0.05 PBM z-score against 500 random probes
2,B8,-0.1 PBM z-score against 500 random probes
3,B3,7.59 PBM z-score against 500 random probes
4,B18,-0.31 PBM z-score against 500 random probes
5,B19,0.42 PBM z-score against 500 random probes
6,B21,4.24 PBM z-score against 500 random probes

# Biological target: VDR:RXRa (Homo sapiens, UniProt P11473;P19793 full;full)
# Test: as above
# Settings: tags: His kept;His cleaved; copies: 1;1; label: surface-attached array probe
# Summary of the method: as §1
# VDR:RXRa, sequence (P11473 whole entry, chain 1 of 2): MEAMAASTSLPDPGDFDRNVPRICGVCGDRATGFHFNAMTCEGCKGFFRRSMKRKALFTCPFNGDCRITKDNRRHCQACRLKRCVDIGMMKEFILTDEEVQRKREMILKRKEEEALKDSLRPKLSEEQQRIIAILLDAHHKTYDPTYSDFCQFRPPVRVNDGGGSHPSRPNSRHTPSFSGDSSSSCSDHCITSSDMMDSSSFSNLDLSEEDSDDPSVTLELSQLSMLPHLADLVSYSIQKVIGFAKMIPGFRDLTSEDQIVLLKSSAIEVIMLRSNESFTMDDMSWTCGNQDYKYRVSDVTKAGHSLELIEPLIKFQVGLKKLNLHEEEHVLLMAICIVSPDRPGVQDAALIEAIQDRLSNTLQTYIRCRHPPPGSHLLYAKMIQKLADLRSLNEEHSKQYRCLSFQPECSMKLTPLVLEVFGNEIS
# VDR:RXRa, sequence (P19793 whole entry, chain 2 of 2): as the sequence (P19793 whole entry) above
row,Binder,binding signal
1,B9,6.63 PBM z-score against 500 random probes
2,B10,-0.78 PBM z-score against 500 random probes
3,B11,3.55 PBM z-score against 500 random probes
4,B13,0.06 PBM z-score against 500 random probes
5,B15,3.31 PBM z-score against 500 random probes

# Biological target: RARb:RXRa (Homo sapiens, UniProt P10826;P19793 full;full)
# Test: as above
# Settings: tags: His kept;His cleaved; copies: 1;1; label: surface-attached array probe
# Summary of the method: as §1
# RARb:RXRa, sequence (P10826 whole entry, chain 1 of 2): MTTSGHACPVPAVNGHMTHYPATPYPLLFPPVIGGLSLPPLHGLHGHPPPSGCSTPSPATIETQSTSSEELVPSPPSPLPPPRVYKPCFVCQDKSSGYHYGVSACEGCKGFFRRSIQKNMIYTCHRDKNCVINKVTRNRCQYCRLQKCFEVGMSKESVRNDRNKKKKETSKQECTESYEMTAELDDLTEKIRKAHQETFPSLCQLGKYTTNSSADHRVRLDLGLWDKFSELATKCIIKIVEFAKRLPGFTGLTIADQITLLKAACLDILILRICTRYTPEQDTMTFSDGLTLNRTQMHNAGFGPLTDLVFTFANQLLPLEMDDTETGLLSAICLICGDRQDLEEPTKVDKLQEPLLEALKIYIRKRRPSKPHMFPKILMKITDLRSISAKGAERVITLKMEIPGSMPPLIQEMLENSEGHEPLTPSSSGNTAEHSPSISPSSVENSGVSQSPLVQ
# RARb:RXRa, sequence (P19793 whole entry, chain 2 of 2): as the sequence (P19793 whole entry) above
row,Binder,binding signal
1,B3,5.88 PBM z-score against 500 random probes
2,B14,3.04 PBM z-score against 500 random probes
3,B16,-0.25 PBM z-score against 500 random probes
4,B19,0.45 PBM z-score against 500 random probes
5,B20,0.5 PBM z-score against 500 random probes

# Biological target: FXR:RXRa (Homo sapiens, UniProt Q96RI1;P19793 full;full)
# Test: as above
# Settings: tags: His kept;His cleaved; copies: 1;1; label: surface-attached array probe
# Summary of the method: as §1
# FXR:RXRa, sequence (Q96RI1 whole entry, chain 1 of 2): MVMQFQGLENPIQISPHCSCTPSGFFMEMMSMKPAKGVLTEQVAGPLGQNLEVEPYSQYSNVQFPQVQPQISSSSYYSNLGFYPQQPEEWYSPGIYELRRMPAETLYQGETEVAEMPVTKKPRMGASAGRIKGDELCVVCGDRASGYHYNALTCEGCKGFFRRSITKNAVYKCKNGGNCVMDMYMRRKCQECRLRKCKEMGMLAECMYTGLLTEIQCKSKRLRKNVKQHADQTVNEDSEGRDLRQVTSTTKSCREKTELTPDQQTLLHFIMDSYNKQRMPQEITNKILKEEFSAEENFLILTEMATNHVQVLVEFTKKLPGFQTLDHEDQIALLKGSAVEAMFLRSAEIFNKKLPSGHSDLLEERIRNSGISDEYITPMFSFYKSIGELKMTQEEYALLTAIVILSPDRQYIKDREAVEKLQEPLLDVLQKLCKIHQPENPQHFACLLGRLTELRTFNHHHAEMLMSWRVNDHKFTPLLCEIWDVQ
# FXR:RXRa, sequence (P19793 whole entry, chain 2 of 2): as the sequence (P19793 whole entry) above
row,Binder,binding signal
1,B10,-0.69 PBM z-score against 500 random probes
2,B4,8.06 PBM z-score against 500 random probes
3,B12,-1.65 PBM z-score against 500 random probes
4,B17,0.29 PBM z-score against 500 random probes
